Reference: the supplement of paper PMC12764529
± gives the half width of the 95% confidence interval.

What was measured:
[1] = folding stability dG unfold from trypsin proteolysis; higher = more stable
How it was run: (§1)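 Sequencing followed digestion of designed mini-proteins with trypsin and chymotrypsin, each at 11 concentrations in threefold dilutions together with a no-protease condition. The mini-proteins were under 80 residues, had no cysteine, sat in a PA-tagged cDNA display construct, and were kept only if AlphaFold2 dimer inter-PAE was above 15. From the counts, Bayesian fitting gave K50, and unfolding free energy was derived against a sequence-predicted unfolded-state K50 and a shared folded-state K50, per protease or combined.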

[2] = folding stability dG unfold from chymotrypsin proteolysis; higher = more stable
How it was run: as §1

[3] = folding stability dG unfold (combined trypsin and chymotrypsin); higher = more stable
How it was run: as §1

Sequence | folding stability dG unfold [1] [kcal/mol] | folding stability dG unfold [2] [kcal/mol] | folding stability dG unfold [3] [kcal/mol]
SAGMKYTFKILVKADSPEEAIETAKKLVEKWLKENFPELPEGVKIKEIKVEPLPDDYYLVTITVEFDPESAG [r5_320_TrMRF] | 4.2 ± 0.19 | 5.51 ± 0.091 | 5.49 ± 0.1
SAGMLRELLDNPDVKRLEIVIFIPEEDLSEEDRERARERARELAERLRELLRERGYDVEIEVRIVRLPPSAG [r5_408_TrROS_Hall] | 3.5 ± 0.11 | 3.22 ± 0.062 | 3.39 ± 0.088
SAGMLRVDIEIPPAFRKMLKNAPPGETVMFELPIKIKIEYYQPDGGKPEPKEHEQPFPVQFMVVLPPDGSAG [r5_946_TrROS] | 2.14 ± 0.16 | 3.18 ± 0.12 | 2.84 ± 0.2
SAGMLVRVTLKYPDGKTIKIPFPYAKILSEETSNNETTFTIDSPESADKAVEAIKKEYPDIEVKVEPLESAG [r5_453_JUSTAS] | 1.67 ± 0.022 | 2.46 ± 0.035 | 2.23 ± 0.058
SAGMMKVRIKIEVTRVEYDEETGELKEETRTIEIPIEAESEEEAEELAKKLAEELPEEEVKIVEIEPLSAGG [r19_209_TrROS_Hall] | 1.1 ± 0.096 | 1.42 ± 0.11 | 1.22 ± 0.22
SAGMNLKIEVSVTPQEFELVEKDEEGNLIKPVKQKATVVTTTTTLPDGTVTTTRSLFLDGELVATSTGSAGG [r19_44_JUSTAS] | 0.716 ± 0.015 | 1.03 ± 0.044 | 0.972 ± 0.098
SAGMNTITFEYKTKDHYVKIDVQVYPPNEGYIRISIEIYNKDGEPKKEVKITIPAPPGDPAVRDFLDQFSAG [r5_964_TrROS] | 2.77 ± 0.32 | 2.74 ± 0.047 | 2.73 ± 0.35
SAGMPAETETTVTITTETIDEKGNLSTKTYTATVRTLPDGRVLVYLENELLLIDPATGEVVAREPNYKPSAG [r14_821_JUSTAS] | 2.3 ± 0.025 | 2.264 ± 0.015 | 2.28 ± 0.051
SAGMPEIVKVKVKIKVNIPVFDKNGKLIGLIPKEYEFEIEAPYEEIKNIIESLPENAEVVEILEIENESAGG [r19_114_TrMRF] | 4.27 ± 0.68 | 2.29 ± 0.29 | 3.29 ± 0.89
SAGMPEVKLLPKPDGSLVLVVVFEDKAIIIEFPPDGEGKIYIIDLKNNKITEIPFPSEDPLKAIKEALSSAG [r5_674_TrMRF] | 2.35 ± 0.086 | 3.99 ± 0.21 | 3.72 ± 0.27
SAGMPIRVRLLVERPALDPETGEPVVERREVVLTLHPEEIASGIPVEELAKELEKAFPGAKVTVLEVSSAGG [r19_110_TrMRF] | 3.88 ± 0.11 | 3.77 ± 0.044 | 3.81 ± 0.047
SAGMPKTTVETEIRFVETEEGIEAVAEVRTETETRVVVIPGHLGPEEAIEVLEKLLEEEGLELSRVEIGSAG [r5_305_TrMRF] | 0.646 ± 0.032 | 0.353 ± 0.038 | 0.542 ± 0.082
SAGMPVEIPLVIRLTRYRDLPDGPELAEVRELPLPLRADPSELDNPELLAFIREALEKLPDEIREVEIASAG [r5_849_TrMRF] | -0.255 ± 0.27 | 0.757 ± 0.11 | 0.479 ± 0.17
SAGMSFTVTTVGSPGPTTPRVVIEPPDRVVVISRLPDGSYEVRYYDPSPPVELERRRLAPEEAIAELLSAGG [r19_188_JUSTAS] | 0.385 ± 0.095 | 0.647 ± 0.098 | 0.575 ± 0.077
SAGMSITIESDTNAPPDLPDIGEEEKLALAEELKEKALADPRYPDEEVVIVRPFKTPGGARWTITVVVSAGG [r19_132_JUSTAS] | 1.31 ± 0.042 | 1.29 ± 0.24 | 1.32 ± 0.17
SAGMTFTTVTVERPLGSPEGKPVSLEEVEEYAKKVAEELEPNGFPVENITIELLPDGTAVITMTIKKPLSAG [r14_470_JUSTAS] | 2.03 ± 0.042 | 1.86 ± 0.044 | 1.94 ± 0.056
SAGMTFTVDVEEETFSETKVIRVPVEYDDPALVDVAAAEIREALGIPESESVTVEREPRRATITIVIPASAG [r14_804_JUSTAS] | 0.267 ± 0.031 | 0.954 ± 0.029 | 0.743 ± 0.051
SAGMTIEVEYTFPPGNPEEAEKRAEEIAEELKPKPLPNITIEISREPVVDPNSDATTTRYTFTITAEPKSAG [r5_49_JUSTAS] | 0.821 ± 0.051 | 1.19 ± 0.14 | 1.02 ± 0.19
SAGMTITLDGVEITVERVRDEETGEWYYRVTVTVTTEDGEKVTITVTVPEGMTPEQVEALARELAEALASAG [r5_704_TrROS_Hall] | 5.12 ± 0.42 | 4.37 ± 0.096 | 4.54 ± 0.19
SAGMTITVESLEDALALAEELAEKYPGLKVTVEVRLSPDGKTVEVRVTIEPAPPVKVVDPETGEEVEEESAG [r5_870_TrROS_Hall] | 3.72 ± 0.36 | 2.3 ± 0.12 | 3.43 ± 0.3
SAGMTITVPGNVTVNVVITAYKFDENGNLIGPYTLVKPITVPENSTITIDLPNDEPNVVIIEIKAIPASAGG [r19_295_TrMRF] | 3.16 ± 0.15 | 4.81 ± 0.073 | 4.42 ± 0.18

Sequence | folding stability dG unfold [1] [kcal/mol] | folding stability dG unfold [2] [kcal/mol] | folding stability dG unfold [3] [kcal/mol]
SAGMTLTVVLPVPEEMTEEEAAEILRAYVDAVVAELLAGDAVAVPKEIVVDKETGTAVAKVELFIPPDLSAG [r5_146_TrMRF] | 2.59 ± 0.064 | 2.56 ± 0.027 | 2.58 ± 0.068
SAGMTQTLEVSGPSVKVTLTVAPDGSVTITTTDPNGNTTTTSLYVPPGVPVTIPLPFGGTTITATVTPASAG [r5_237_JUSTAS] | 2.38 ± 0.087 | 2.11 ± 0.071 | 2.36 ± 0.09
SAGMTSVLTLEEVSPEELRAKIDEALATLPEGTIFVLPSEELAEVVKELHPGVPVVVRDEATGRLTEVGSAG [r5_391_JUSTAS] | 1.17 ± 0.041 | 1.67 ± 0.1 | 1.5 ± 0.086
SAGMTTEKSPSGVGRVYLPTRTLELELLPDGTVVLRFPDGTEVVHPLSPEEAAAVRAELRARGLVVRPLSAG [r5_753_JUSTAS] | 1.59 ± 0.062 | 1.81 ± 0.092 | 1.7 ± 0.1
SAGMTTTVTLKAPDGTTATVTIPPDGNAVMTIETPEGTSTRTVPVPADVSIEEILKEYPNYTIVSREAASAG [r5_259_JUSTAS] | 1.26 ± 0.037 | 2.05 ± 0.021 | 1.82 ± 0.041
SAGMTVTFTLDFPANGGPITITVYHGDKAEEITVPKNETVTITVDLDPNDGLTIRAHYPDGSYVEFPIGSAG [r5_187_TrMRF] | 3.46 ± 0.16 | 4.65 ± 0.053 | 4.5 ± 0.09
SAGMTVTVTLNYPTPGGPVTVRVLRGDEEEVVTVPPTETLTITVTLDPDSGATIEVFFPDGSSKTYPLGSAG [r5_187_JUSTAS] | 2.81 ± 0.1 | 3.76 ± 0.14 | 3.35 ± 0.18
SAGMTYTEKVFTSEVTLPEIGAKITITTTVKTPPSGETEPTVEVTFDLPETASEEVVKAVLEELNIPVESAG [r5_486_JUSTAS] | -0.411 ± 0.2 | 1.13 ± 0.066 | 0.628 ± 0.38
SAGMVEITVEVKEDGTVIVTIPATSPEEALEVAEEVARELAKQFGAEHTEFVIEPVPDDTLVLLVPIKKSAG [r5_772_TrMRF] | 0.389 ± 0.065 | 1.26 ± 0.11 | 0.874 ± 0.23
SAGMVEVSVTVSPRADGTITVTITLTKTFPVKDSKGNLYLETTTKTVTVPVTSLEEAPVIVKEVIDKLSAGG [r19_218_JUSTAS] | 3.82 ± 0.19 | 3.23 ± 0.14 | 3.54 ± 0.15
SAGMVIPYKELKKNLSEEELIELAKEAAEKLGYKPKKIEIKETPEPDKYIVIDVIDENGNKHPIVFPSKSAG [r5_745_TrMRF] | 0.69 ± 0.036 | 0.374 ± 0.17 | 0.542 ± 0.088
SAGMVKIEIEKKEDGEILITITAPSEEELKKLAEELAKELAKKLGIEEIEVKVEKLENGEYKVTIRIKKSAG [r5_772_TrROS_Hall] | 2.99 ± 0.14 | 3.09 ± 0.26 | 2.99 ± 0.23
SAGMVLKITVKDKKTKEEREIVIEIPEDDPELKKLGIKSPEELAKKLAEELKKEGIEVEEVKVEAYPLPSAG [r5_722_TrROS_Hall] | 1.23 ± 0.096 | 2.04 ± 0.084 | 1.78 ± 0.25
SAGMVTITVETTDPQGNWTTKTYEFPLDPGYSLDDVIKRHSPPNAKKYEVTKTEPPPPVTEIKLTVEPSSAG [r5_227_JUSTAS] | 0.698 ± 0.082 | 1.1 ± 0.19 | 0.822 ± 0.46
SAGMVVENPGTETRVVFDPETGELYVEVGDKVYRIPLPPGVEVEFEVDPEAGTIRVYFPNTGEVLELPLSAG [r5_858_TrMRF] | 4.19 ± 0.13 | 3.38 ± 0.042 | 3.63 ± 0.051
SAGMVVVKVTLPGPEEALRAAAAAVPVPVSIERDPEKPDVWTATITFPSPELAPVFVEAFAALGAEVVGSAG [r14_745_JUSTAS] | 1.96 ± 0.041 | 1.29 ± 0.041 | 1.69 ± 0.069
SAGNAKEIAKKIKIRIREFFAERFGFPDVEIDSVTIKDVDPKNGRVRVNITWWWPNGRPWKHEIEIPVDSAG [r5_20_TrROS] | 2.38 ± 0.048 | 2.43 ± 0.072 | 2.43 ± 0.11
SAGNDEEDQKKAEEQQKPPLEIEPIRVMVMVPFPGGDLLISITIPIIKYPDGGIIIPIPIEIIPLEDISAGG [r19_11_TrROS] | 2.06 ± 0.093 | 2.84 ± 0.085 | 2.5 ± 0.1
SAGNFNIKEQKETDGRRVIEIPMPGSGHEITIVFERNPDGPRKININMNGPMADYLREALPGIDRVEIISAG [r5_933_TrROS] | 0.187 ± 0.31 | 0.275 ± 0.26 | 0.213 ± 0.22
SAGNIKIEDIEPNDDYYTLVIKAPENGRTIMIQYNPNNNRIPIMIFPPGGVRTIPIPMNDIEDFLKEILSAG [r5_769_TrROS] | 0.79 ± 0.086 | 0.903 ± 0.049 | 0.893 ± 0.22
SAGNITIEWEEYEDYRVIKITIPYKSPQQAPEEIESIIRKLGFPPNMKIEDIEVDPEEGHVEITIYIKSAGG [r19_186_TrROS] | 3.85 ± 0.12 | 4.65 ± 0.083 | 4.47 ± 0.085
